Laboratory results as given in patent US20230400461A1 (TEKNOLOGIAN TUTKIMUSKESKUS VTT, published 2023).

Assays:
[1] = target: T1, Staphylococcus aureus Enterotoxin A (Staphylococcus aureus, UniProt P0A0L2 25-257)
T1 sequence: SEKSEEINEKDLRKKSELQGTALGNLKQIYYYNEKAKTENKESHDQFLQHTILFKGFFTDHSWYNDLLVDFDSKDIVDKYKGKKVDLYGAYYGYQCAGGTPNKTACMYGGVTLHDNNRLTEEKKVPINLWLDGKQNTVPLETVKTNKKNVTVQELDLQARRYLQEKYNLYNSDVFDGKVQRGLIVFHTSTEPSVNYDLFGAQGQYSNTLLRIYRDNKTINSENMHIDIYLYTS

[2] = target: T2, Staphylococcus aureus Enterotoxin B (Staphylococcus aureus, UniProt P01552 28-266); assay: ELISA (screening; results not shown)
T2 sequence: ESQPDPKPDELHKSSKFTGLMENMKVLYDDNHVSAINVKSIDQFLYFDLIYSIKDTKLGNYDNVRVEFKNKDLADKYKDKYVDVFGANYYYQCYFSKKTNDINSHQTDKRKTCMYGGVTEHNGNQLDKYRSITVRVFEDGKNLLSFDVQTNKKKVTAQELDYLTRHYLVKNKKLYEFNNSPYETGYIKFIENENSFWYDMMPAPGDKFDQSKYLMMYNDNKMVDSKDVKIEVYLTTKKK

B1: anti-SEA (90) Fab (Fab, V domains shown)
VH: EVQLQQSGPELVKPGASVKMSCKASGYTFTSYVMQWVKQKPGQGLEWIGYINPYNDGTKYNEKFKGKATLTSDKSSSTAYMELSSLTSEDSAVYYCARGDGVGGMDYWGQGTSVTVSS
VL: DIVMTQSPATLSVTPGDRVSLSCRASQSISDYLHWYQQKSHESPRLLIKYASQSISGIPSRFSGSGSGSDFTLSINSVEPEDVGVYYCQNGHSFPPTFGGGTKLEIK
B1 was tested, and the Kd [1] was 3 nM, the koff [1] was 0.0013 s⁻¹ and the kon [1] was 420000 M⁻¹ s⁻¹. B1: no binding [2].

B2: anti-SEA (55) Fab (Fab, V domains shown)
VH: QVQLQQSGAELMKPGASVKISCKATGYTISSHWIEWVKQRPGHGLEWIGETLPGSGSTKYNEKFKGKATITADTSSNTAYMQLSSLTSEDSAVYYCARGDGNYGWFAYWGQGTLVTVSA
VL: DIVLTQSPALMAASPGEKVTITCSVSSSISSSNLHWYQQKSETSPKPWIYGTSNLASGVPVRFSGSGSGTSYSLTISSMEAEDAATYYCQQWSSYPLTFGAGTKLELK
With B2 the Kd [1] was 3.6 nM, the koff [1] was 0.00035 s⁻¹ and the kon [1] was 97000 M⁻¹ s⁻¹. B2: no binding [2].
